Here are results for two proteins from paper PMC10514931.

Series [1] is described as follows: Western blot, KG1a-TWIST1 and SKM1. The following applies: glycan lost; control: untreated cells.
Series [2] in a line: CHX chase, TWIST1 stability, KG1a-TWIST1 and SKM1. The following applies: glycan lost; control: untreated cells.
Series [3] in a line: IP / ubiquitin blot, KG1a-TWIST1 and SKM1. The following applies: glycan lost; control: non-treated cells.
Another series can be described thus: Western blot, HEK-293T. The following applies: glycan lost; control: WT flag-TWIST1.
Series [4] can be described thus: IP / ubiquitin blot, HEK-293T. The following applies: glycan lost; control: WT flag-TWIST1.
A short description of series [5]: CHX chase, TWIST1 stability, HEK-293T. The following applies: glycan lost; control: WT flag-TWIST1.

B1: TWIST1: OSMI-1 (protein)
parent chain: MMQDVSSSPVSPADDSLSNSEEEPDRQQPPSGKRGGRKRRSSRRSAGGGAGPGGAAGGGVGGGDEPGSPAQGKRGKKSAGCGGGGGAGGGGGSSSGGGSPQSYEELQTQRVMANVRERQRTQSLNEAFAALRKIIPTLPSDKLSKIQTLKLAARYIDFLYQVLQSDELDSKMASCSYVAHERLSYAFSVWRMEGAWSMSASH
Consider B1, for which the expression_or_secretion result in series [1] is “decreases”. Also, in series [2], the degradation_or_half_life entry is reported as “decreases”. The “other: ubiquitination” value in series [3] is “increases”.

B2: TWIST1: S31A (protein)
parent chain: MMQDVSSSPVSPADDSLSNSEEEPDRQQPPSGKRGGRKRRSSRRSAGGGAGPGGAAGGGVGGGDEPGSPAQGKRGKKSAGCGGGGGAGGGGGSSSGGGSPQSYEELQTQRVMANVRERQRTQSLNEAFAALRKIIPTLPSDKLSKIQTLKLAARYIDFLYQVLQSDELDSKMASCSYVAHERLSYAFSVWRMEGAWSMSASH
Regarding B2, in “Western blot, HEK-293T”, the expression_or_secretion entry is on record as “decreases”. In series [4], the “other: ubiquitination” value is reported as “increases”. Besides, in series [5], the degradation_or_half_life entry is “decreases”.
